# Measurements: publication PMC5911420 (DNA repair, 2018)
# Read-outs that look alike come from different tables or passages of the source.
# Experiments:
# Assay in all cases: SEC-MALS
# [1] = molecular target: T1, full-length NEIL1 DNA glycosylase, His-tagged (human, UniProt Q96FI4 1-390)
# SEC-MALS = molecular target: the molecule itself
# [2] = molecular target: T1, full-length NEIL1 DNA glycosylase, …; remark: listed apart in the source
# T1 sequence (Q96FI4 whole entry): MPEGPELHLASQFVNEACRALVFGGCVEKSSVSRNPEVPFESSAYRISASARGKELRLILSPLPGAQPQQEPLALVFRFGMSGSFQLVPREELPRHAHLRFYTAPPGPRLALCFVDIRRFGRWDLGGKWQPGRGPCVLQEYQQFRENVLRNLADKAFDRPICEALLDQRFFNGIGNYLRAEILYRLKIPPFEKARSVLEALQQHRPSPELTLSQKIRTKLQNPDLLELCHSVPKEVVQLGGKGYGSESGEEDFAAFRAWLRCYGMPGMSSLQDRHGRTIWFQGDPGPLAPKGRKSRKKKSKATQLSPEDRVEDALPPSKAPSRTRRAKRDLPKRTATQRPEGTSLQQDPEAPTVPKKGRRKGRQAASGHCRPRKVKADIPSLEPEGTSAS
binder,measurement,setting,value
"human mitochondrial single-stranded DNA binding protein, purified recombinant (natural protein, UniProt Q04837 17-148, looked up) ESETTTSLVLERSLNRVHLLGRVGQDPVLRQVEGKNPVTIFSLATNEMWRSGDSEVYQLGDVSQKTTWHRISVFRPGLRDVAYQYVKKGSRIYLEGKIDYGEYMDKNNVRRQATTIIADNIIFLSDQTKEKE",stoichiometry N,[1],1 mtSSB tetramer per NEIL1 (with one DNA)
same,stoichiometry N,SEC-MALS,4
same,stoichiometry N,[2],1 mtSSB monomer per NEIL1
